The text below walks through data of doi:10.1101/2022.11.07.515376 (bioRxiv, 2022).

Data set [1] deals with the molecule itself. Put plainly: ITC.
Data set [2] deals with the molecule itself. The data set is described as follows: SEC. (In general: SEC sorts molecules by how far they enter the pores of the column.)
Data set [3] deals with the molecule itself. Put plainly: AUC.

What is called Kd is the concentration at which binding is half-saturated. As a reminder, the stoichiometry N is the number of molecules, sites or subunits per partner or assembly.

B1: MSMEG_2027, full-length (as used in the solution studies) (enzyme)
chain: MTDAELSPTDWVREQTERILEQGTTDGVHVLDRPIVLFTTTGAKSGKKRYVPLMRVEENGKYAMVASKGGDPKHPSWYFNVKANPTVSVQDGDKVLPDRTARELEGEEREHWWKLAVEAYPPYAEYQTKTDRLIPVFIVE
Consider B1, for which the Kd in data set [1] is roughly 1.2 µM; in data set [3], roughly 8 µM. Also, in data set [2], the “stoichiometry N” value came to 2.
